Laboratory results as given in patent US20080090770A1 (published 2008).
Where no end group is shown, it is not given here.

B1: YGRKKRRQRRRAVAATSINL (SEQ ID NO: 138) (peptide)
peptide: YGRKKRRQRRRAVAATSINL
modifications: also: biotinylated, position not given here
notes: TAT plus 9 residues; also called AVC#1791; AVC 1791
B2: Flag-MUC1-CD(1-68) (other)
chain: CQCRRKNYGQLDIFPARDTYHPMSEYPTYHTHGRYVPPSSTDRSPYEKVSAGNGGSSLSYTNPAVAAT
notes: also called pIRESpuro2-Flag-MUC1-CD(1-68); truncated MUC1 cytoplasmic domain; not shown: Flag tag
B3: MUC1 C-terminus peptide NGGSSLSYTNPAVAATSANL (SEQ ID NO: 96) (peptide)
peptide: NGGSSLSYTNPAVAATSANL
modifications: also: biotinylated, position not given here
notes: also called C-terminus of MUC1; MUC1 peptide
B4: YGRKKRRQRRRQDERVETRV (SEQ ID NO: 171) (peptide)
peptide: YGRKKRRQRRRQDERVETRV
modifications: also: biotinylated (position not given here)
notes: TAT plus 9 residues; also called AVC#1855
B5: YGRKKRRQRRRSRTDRKYWA (SEQ ID NO: 148) (peptide)
peptide: YGRKKRRQRRRSRTDRKYWA
modifications: also: biotinylated (position not given here)
notes: TAT plus 9 residues; also called AVC#1832
B6: YGRKKRRQRRRSRTDRKYQI (SEQ ID NO: 155) (peptide)
peptide: YGRKKRRQRRRSRTDRKYQI
modifications: also: biotinylated (position not given here)
notes: TAT plus 9 residues; also called AVC#1839
B7: YGRKKRRQRRRAVAATGIWA (SEQ ID NO: 143) (peptide)
peptide: YGRKKRRQRRRAVAATGIWA
modifications: also: biotinylated, position not given here
notes: TAT plus 9 residues; also called AVC#1827
B8: YGRKKRRQRRRSRTDRLEYV (SEQ ID NO: 162) (peptide)
peptide: YGRKKRRQRRRSRTDRLEYV
modifications: also: biotinylated (position not given here)
notes: TAT plus 9 residues; also called AVC#1846
B9: YGRKKRRQRRRAVAATYSNL (SEQ ID NO: 139) (peptide)
peptide: YGRKKRRQRRRAVAATYSNL
modifications: also: biotinylated, position not given here
notes: TAT plus 9 residues; also called AVC#1793
B10: YGRKKRRQRRRQDERRLIVL (SEQ ID NO: 158) (peptide)
peptide: YGRKKRRQRRRQDERRLIVL
modifications: also: biotinylated (position not given here)
notes: TAT plus 9 residues; also called AVC#1842
B11: YGRKKRRQRRRKNKDKEYYV (SEQ ID NO: 168) (peptide)
peptide: YGRKKRRQRRRKNKDKEYYV
modifications: also: biotinylated, position not given here
notes: TAT plus 9 residues; also called AVC#1852
B12: YGRKKRRQRRRQDEEETIWA (SEQ ID NO: 144) (peptide)
peptide: YGRKKRRQRRRQDEEETIWA
modifications: also: biotinylated (position not given here)
notes: TAT plus 9 residues; also called AVC#1828
B13: YGRKKRRQRRRQDEEEGIWS (SEQ ID NO: 149) (peptide)
peptide: YGRKKRRQRRRQDEEEGIWS
modifications: also: biotinylated, position not given here
notes: TAT plus 9 residues; also called AVC#1833
B14: YGRKKRRQRRRGMTSSSSVV (SEQ ID NO: 169) (peptide)
peptide: YGRKKRRQRRRGMTSSSSVV
modifications: also: biotinylated, position not given here
notes: TAT plus 9 residues; also called AVC#1853
B15: YGRKKRRQRRRARGTRLVWV (SEQ ID NO: 160) (peptide)
peptide: YGRKKRRQRRRARGTRLVWV
modifications: also: biotinylated, position not given here
notes: TAT plus 9 residues; also called AVC#1844
B16: YGRKKRRQRRRSVTSTSINL (SEQ ID NO: 151) (peptide)
peptide: YGRKKRRQRRRSVTSTSINL
modifications: also: biotinylated (position not given here)
notes: TAT plus 9 residues; also called AVC#1835
B17: YGRKKRRQRRRARGDVRLML (SEQ ID NO: 156) (peptide)
peptide: YGRKKRRQRRRARGDVRLML
modifications: also: biotinylated, position not given here
notes: TAT plus 9 residues; also called AVC#1840
B18: YGRKKRRQRRRARGDRLVSL (SEQ ID NO: 159) (peptide)
peptide: YGRKKRRQRRRARGDRLVSL
modifications: also: biotinylated, position not given here
notes: TAT plus 9 residues; also called AVC#1843
B19: YGRKKRRQRRRARGDRKRWA (SEQ ID NO: 140) (peptide)
peptide: YGRKKRRQRRRARGDRKRWA
modifications: also: biotinylated, position not given here
notes: TAT plus 9 residues; also called AVC#1821
B20: YGRKKRRQRRRARGDRTIIY (SEQ ID NO: 164) (peptide)
peptide: YGRKKRRQRRRARGDRTIIY
modifications: also: biotinylated, position not given here
notes: TAT plus 9 residues; also called AVC#1848
B21: YGRKKRRQRRRARGDRKKIV (SEQ ID NO: 166) (peptide)
peptide: YGRKKRRQRRRARGDRKKIV
modifications: also: biotinylated, position not given here
notes: TAT plus 9 residues; also called AVC#1850
B22: YGRKKRRQRRRARGDRYRIV (SEQ ID NO: 161) (peptide)
peptide: YGRKKRRQRRRARGDRYRIV
modifications: also: biotinylated, position not given here
notes: TAT plus 9 residues; also called AVC#1845
B23: YGRKKRRQRRRARSDRGIWA (SEQ ID NO: 142) (peptide)
peptide: YGRKKRRQRRRARSDRGIWA
modifications: also: biotinylated, position not given here
notes: TAT plus 9 residues; also called AVC#1823
B24: YGRKKRRQRRRARGDRKIRV (SEQ ID NO: 152) (peptide)
peptide: YGRKKRRQRRRARGDRKIRV
modifications: also: biotinylated, position not given here
notes: TAT plus 9 residues; also called AVC#1836
B25: YGRKKRRQRRRARTDRKVEV (SEQ ID NO: 153) (peptide)
peptide: YGRKKRRQRRRARTDRKVEV
modifications: also: biotinylated, position not given here
notes: TAT plus 9 residues; also called AVC#1837
B26: YGRKKRRQRRRARGDRKVPV (SEQ ID NO: 157) (peptide)
peptide: YGRKKRRQRRRARGDRKVPV
modifications: also: biotinylated, position not given here
notes: TAT plus 9 residues; also called AVC#1841
B27: YGRKKRRQRRRARGDRRRIV (SEQ ID NO: 165) (peptide)
peptide: YGRKKRRQRRRARGDRRRIV
modifications: also: biotinylated, position not given here
notes: TAT plus 9 residues; also called AVC#1849
B28: YGRKKRRQRRRARSDRTIIA (SEQ ID NO: 146) (peptide)
peptide: YGRKKRRQRRRARSDRTIIA
modifications: also: biotinylated, position not given here
notes: TAT plus 9 residues; also called AVC#1830
B29: YGRKKRRQRRRARGDRKYIV (SEQ ID NO: 154) (peptide)
peptide: YGRKKRRQRRRARGDRKYIV
modifications: also: biotinylated, position not given here
notes: TAT plus 9 residues; also called AVC#1838
B30: YGRKKRRQRRRARGDRKRWL (SEQ ID NO: 141) (peptide)
peptide: YGRKKRRQRRRARGDRKRWL
modifications: also: biotinylated, position not given here
notes: TAT plus 9 residues; also called AVC#1822
B31: YGRKKRRQRRRARSDRTIWA (SEQ ID NO: 145) (peptide)
peptide: YGRKKRRQRRRARSDRTIWA
modifications: also: biotinylated, position not given here
notes: TAT plus 9 residues; also called AVC#1829
B32: YGRKKRRQRRRARSDRKRIA (SEQ ID NO: 147) (peptide)
peptide: YGRKKRRQRRRARSDRKRIA
modifications: also: biotinylated, position not given here
notes: TAT plus 9 residues; also called AVC#1831
B33: YGRKKRRQRRRARGDRLEIV (SEQ ID NO: 163) (peptide)
peptide: YGRKKRRQRRRARGDRLEIV
modifications: also: biotinylated, position not given here
notes: TAT plus 9 residues; also called AVC#1847
B34: YGRKKRRQRRRARSDRKRIV (SEQ ID NO: 167) (peptide)
peptide: YGRKKRRQRRRARSDRKRIV
modifications: also: biotinylated, position not given here
notes: TAT plus 9 residues; also called AVC#1851
B35: YGRKKRRQRRRSRTVREIWA (SEQ ID NO: 150) (peptide)
peptide: YGRKKRRQRRRSRTVREIWA
modifications: also: biotinylated (position not given here)
notes: TAT plus 9 residues; also called AVC#1834

Target: T1, GST-RIM2 (KIAA0751) PDZ domain 1 (human)
T1 construct: Construct RIM2, PDZ domain 1-pGEX-3X; vector sites BamH1/EcoR1, insert sites BglII/MfeI; also called GST-RIM2 PDZ domain; RIM3 (as printed once)
T1 sequence (chain, as listed by the source): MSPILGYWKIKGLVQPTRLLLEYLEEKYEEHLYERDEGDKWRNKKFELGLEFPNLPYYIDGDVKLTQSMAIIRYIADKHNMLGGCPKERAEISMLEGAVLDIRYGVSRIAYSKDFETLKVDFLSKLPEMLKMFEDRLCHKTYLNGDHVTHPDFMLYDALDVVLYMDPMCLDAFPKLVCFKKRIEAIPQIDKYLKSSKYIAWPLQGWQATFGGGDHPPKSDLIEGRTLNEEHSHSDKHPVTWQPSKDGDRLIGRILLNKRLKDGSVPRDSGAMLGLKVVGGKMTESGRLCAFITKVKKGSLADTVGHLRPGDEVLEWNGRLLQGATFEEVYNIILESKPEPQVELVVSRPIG
Test: modified ELISA, peptide titration

YGRKKRRQRRRAVAAASANL (also: biotinylated, position not given here) [YGRKKRRQRRRAVAAASANL (SEQ ID NO: 135)]: binds.

Target: T1, GST-RIM2 (KIAA0751) PDZ domain 1
Test: modified ELISA, GST-PDZ captured by anti-GST, biotinylated peptide titrated

Compared with B1, YGRKKRRQRRRQDEEEGIWA (also: biotinylated, position not given here, also called AVC#1790; AVC 1790) [YGRKKRRQRRRQDEEEGIWA (SEQ ID NO: 137)] is 8-fold lower in EC50: 40 nM for the first, 5 nM for the second.

Work on YGRKKRRQRRRARGDRKRIV (also: biotinylated, position not given here, also called AVC#1796; AVC 1796) [YGRKKRRQRRRARGDRKRIV (SEQ ID NO: 136)] yielded an EC50 of 20 nM.

Target: T2, GST-ZO-1 PDZ domain 2 (human)
T2 construct: also called ZO-1 d2; ZO1 d2
T2 sequence (chain, as listed by the source): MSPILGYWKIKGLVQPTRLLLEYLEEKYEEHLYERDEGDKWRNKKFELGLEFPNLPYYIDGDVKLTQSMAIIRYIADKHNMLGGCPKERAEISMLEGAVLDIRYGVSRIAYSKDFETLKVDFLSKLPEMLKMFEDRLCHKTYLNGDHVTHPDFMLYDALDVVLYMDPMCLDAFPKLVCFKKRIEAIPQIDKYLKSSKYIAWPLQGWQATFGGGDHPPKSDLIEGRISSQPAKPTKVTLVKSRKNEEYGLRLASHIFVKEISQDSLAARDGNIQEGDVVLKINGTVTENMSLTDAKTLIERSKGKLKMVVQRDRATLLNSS
Test: as above

Going from B1 to YGRKKRRQRRRQDEEEGIWA (also: biotinylated, position not given here, also called AVC#1790; AVC 1790) [YGRKKRRQRRRQDEEEGIWA (SEQ ID NO: 137)], the EC50 rises from 8 nM to 50 nM (6.2-fold). The first is the more potent here.

YGRKKRRQRRRARGDRKRIV (also: biotinylated, position not given here, also called AVC#1796; AVC 1796) [YGRKKRRQRRRARGDRKRIV (SEQ ID NO: 136)] showed an EC50 of 20 nM.

Target: T3, EGFR (UniProt P00533 25-1210)
T3 construct: also called HER1
Test: immunoprecipitation with anti-EGFR from lysates of transfected 293 cells, anti-MUC1-CD immunoblot
Protocol: Lysates were subjected to immunoprecipitation with anti-EGFR or IgG as a control.
Equal amounts of cell lysate were incubated with anti-EGFR (Santa Cruz Biotechnology, Santa Cruz, Calif.) or mouse IgG. […] Reactivity was detected with a horseradish peroxidase-conjugated second antibody and chemiluminescence.

B2: no binding.

Target: FGFR3 (UniProt P22607 23-806, limits assumed)
Sequence (P22607 23-806 limits assumed): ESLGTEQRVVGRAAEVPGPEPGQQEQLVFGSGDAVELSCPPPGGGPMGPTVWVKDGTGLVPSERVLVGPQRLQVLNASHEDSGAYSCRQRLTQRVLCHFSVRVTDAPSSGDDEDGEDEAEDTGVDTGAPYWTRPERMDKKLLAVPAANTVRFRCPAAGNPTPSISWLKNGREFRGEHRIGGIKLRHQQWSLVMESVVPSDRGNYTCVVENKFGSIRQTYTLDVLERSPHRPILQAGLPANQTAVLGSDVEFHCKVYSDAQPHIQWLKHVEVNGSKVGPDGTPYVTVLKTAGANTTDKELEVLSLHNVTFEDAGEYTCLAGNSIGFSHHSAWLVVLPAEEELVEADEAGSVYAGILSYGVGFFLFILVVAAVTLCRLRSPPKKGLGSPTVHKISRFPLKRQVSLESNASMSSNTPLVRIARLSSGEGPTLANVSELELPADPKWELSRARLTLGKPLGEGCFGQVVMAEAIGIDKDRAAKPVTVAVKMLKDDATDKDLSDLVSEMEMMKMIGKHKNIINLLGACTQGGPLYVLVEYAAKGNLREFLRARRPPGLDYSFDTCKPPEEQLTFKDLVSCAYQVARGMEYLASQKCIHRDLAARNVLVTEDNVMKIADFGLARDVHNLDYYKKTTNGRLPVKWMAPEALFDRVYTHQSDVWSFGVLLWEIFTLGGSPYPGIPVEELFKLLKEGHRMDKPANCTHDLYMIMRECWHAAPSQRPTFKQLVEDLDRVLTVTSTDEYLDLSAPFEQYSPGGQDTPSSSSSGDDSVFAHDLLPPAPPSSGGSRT
Test: immunoprecipitation with anti-FGFR3 from lysates of transfected 293 cells, anti-MUC1-CD immunoblot
Protocol: Lysates were subjected to immunoprecipitation with anti-FGFR3 or IgG as a control.
Equal amounts of cell lysate were incubated with anti-FGFR3 or mouse IgG. […] Reactivity was detected with a horseradish peroxidase-conjugated second antibody and chemiluminescence.

B2: no binding.

Target: GST-LIM Mystique PDZ domain 1 (human)
Sequence (chain, as listed by the source limits assumed): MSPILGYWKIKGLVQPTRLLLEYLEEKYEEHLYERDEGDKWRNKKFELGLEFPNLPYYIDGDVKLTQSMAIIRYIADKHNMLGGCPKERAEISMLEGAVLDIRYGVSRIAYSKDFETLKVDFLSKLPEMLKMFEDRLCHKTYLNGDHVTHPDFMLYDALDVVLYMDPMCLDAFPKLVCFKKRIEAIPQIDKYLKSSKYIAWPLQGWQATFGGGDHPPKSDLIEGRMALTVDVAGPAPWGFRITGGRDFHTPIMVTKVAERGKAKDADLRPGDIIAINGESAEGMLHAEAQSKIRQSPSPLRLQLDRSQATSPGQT
Test: modified ELISA, GST-PDZ captured by anti-GST, biotinylated MUC1 peptide titrated, HRP-streptavidin
Description: Titrations to determine relative EC₅₀ values: Peptide corresponding to MUC1 was then titrated against a constant amount of the PDZ domain-containing recombinant proteins identified in the first part of this example.

For B3, the EC50 was 10 nM.

Target: T1, GST-RIM2 (KIAA0751) PDZ domain 1
Test: modified ELISA, plated GST-RIM2 PDZ domain, biotinylated peptide 0.001-10 µM, curve fit; Relative EC50

Compared with B4, B5 is lower in EC50: 880 nM for the first, less than 10 nM for the second.

Compared with B6, B7 is lower in EC50: 22 nM for the first, less than 10 nM for the second.

Compared with B8, B1 is 4-fold higher in EC50: 10 nM for the first, 40 nM for the second. The first is the more potent here.

First: B9
Second: B10
The EC50 of the first is 7.7-fold higher: 600 nM for the first, 78 nM for the second. The second is the more potent here.

Compared with B11, YGRKKRRQRRRQDEEEGIWA (also: biotinylated, position not given here, also called AVC#1790; AVC 1790) [YGRKKRRQRRRQDEEEGIWA (SEQ ID NO: 137)] is 2.6-fold lower in EC50: 13 nM for the first, 5 nM for the second.

Going from B12 to B13, the EC50 falls from 240 nM to 50 nM (4.8-fold). The second is the more potent here.

Going from YGRKKRRQRRRLQRRRETQV (also: biotinylated, position not given here, TAT plus 9 residues) [YGRKKRRQRRRLQRRRETQV (AVC#1856)] to B14, the EC50 rises from 33 nM to 135 nM (4.1-fold). The first is the more potent here.

First: B15
Second: B16
The EC50 of the first is lower: less than 10 nM for the first, 90 nM for the second.

Compared with B17, B18 is 2.3-fold higher in EC50: roughly 30 nM for the first, 68 nM for the second.

Going from YGRKKRRQRRRARGDRKRIV (also: biotinylated, position not given here, also called AVC#1796; AVC 1796) [YGRKKRRQRRRARGDRKRIV (SEQ ID NO: 136)] to B19, the EC50 falls from 20 nM to 7 nM (2.9-fold).

Going from B20 to B21, the EC50 rises from 30 nM to 47 nM (1.6-fold).

Compared with B22, B23 is lower in EC50: 38 nM for the first, less than 10 nM for the second. The second is the more potent here.

First: B24
Second: B25
The EC50 of the first is 4-fold lower: 10 nM for the first, 40 nM for the second. The first is the more potent here.

B26 and B27 are within 1.5-fold of each other in EC50: 45 nM for the first, 37 nM for the second.

B28 and B29 are the same in EC50: 13 nM for the first, 13 nM for the second.

B30 and B31 cannot be ordered by EC50: 8 nM for the first, less than 10 nM for the second.

First: B32
Second: B33
The EC50 of the first is 2.9-fold lower: 45 nM for the first, 132 nM for the second.

Compared with B34, B35 is lower in EC50: 47 nM for the first, less than 10 nM for the second. The second is the more potent here.
